Experimental data published in the supplement of paper PMC10724198.
± gives the standard deviation of the averaged measurements.

Tested on: Saccharomyces cerevisiae
Assay: protein stability index of tFT-peptide fusion (C-terminal peptide) (PSI (0-1 scale)); higher = more stable (slower turnover)
Settings: genetic background: wild type; temperature: 30 C
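Further: PSI is a weighted mean of sequencing reads over stability bins, variants kept only with over 10 reads, mCherry proximal and sfGFP distal, peptide attached via GGGS linker.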

Sequence | protein stability index
PPPLSPPPPPRP | 0.6643 ± 0.0031
PPPLSVPVPPLS | 0.68 ± 0.021
PPPPAPPAPPLR | 0.732 ± 0.056
PPPPAQGRRRPV | 0.703 ± 0.023
PPPPIRRPASHL | 0.76 ± 0.058
PPPPLAPLPPAS | 0.608 ± 0.12
PPPPLAVSPTSP | 0.716 ± 0.039
PPPPLPFSPPDP | 0.681 ± 0.044
PPPPLPHPPAAS | 0.7 ± 0.02
PPPPLPPLTPLS | 0.6512 ± 0.0037
PPPPLPPPTLPT | 0.726 ± 0.11
PPPPLSPPPPRP | 0.693 ± 0.05
PPPPLSTVPPPP | 0.811 ± 0.019
PPPPPAIPRRRT | 0.678 ± 0.033
PPPPPAPTTSVP | 0.6829 ± 0.002
PPPPPHAEAVSR | 0.59 ± 0.029
PPPPPLHPPPPL | 0.605 ± 0.056
PPPPPLLAPSPL | 0.671 ± 0.07
PPPPPLLPSPSP | 0.696 ± 0.05
PPPPPLPPPPPT | 0.696 ± 0.087
PPPPPLRPPRSP | 0.767 ± 0.013

Sequence | protein stability index
PPPPPPASPPSP | 0.71 ± 0.015
PPPPPPLPLPLS | 0.711 ± 0.084
PPPPPPLTPTFP | 0.6601 ± 0.0036
PPPPPPNAPPSS | 0.647 ± 0.03
PPPPPPPLTSLP | 0.7175 ± 0.0013
PPPPPPPPHPPP | 0.559 ± 0.0068
PPPPPPPPHSPP | 0.672 ± 0.035
PPPPPPPRPSFP | 0.696 ± 0.041
PPPPPPSLPLPP | 0.6709 ± 0.0044
PPPPPRPPYPIP | 0.735 ± 0.011
PPPPPSAPAPLH | 0.6963 ± 0.0021
PPPPPSPAPGIP | 0.66 ± 0.055
PPPPPSSFPFPP | 0.656 ± 0.049
PPPPPTFPPPRS | 0.817 ± 0.025
PPPPPTPLPSTL | 0.727 ± 0.038
PPPPPTPPSSTP | 0.713 ± 0.068
PPPPPTPTPPYR | 0.6952 ± 0.0014
PPPPRLPARLAP | 0.77 ± 0.16
PPPPRPPFPRAF | 0.698 ± 0.0051
PPPPRPPPLPTR | 0.703 ± 0.021
PPPPRPPRPPPA | 0.671 ± 0.12

Sequence | protein stability index
PPPPSLPPPPRS | 0.693 ± 0.035
PPPPSSLPPPPC | 0.691 ± 0.012
PPPPSSPFPHAS | 0.697 ± 0.03
PPPPSSPPHLPF | 0.651 ± 0.018
PPPPVPLPPPRL | 0.713 ± 0.021
PPPPVPPPPSPL | 0.6974 ± 0.0036
PPPPYARHTALI | 0.691 ± 0.032
PPPQSPPLLLVL | 0.548 ± 0.021
PPPRFRLSSFPT | 0.701 ± 0.021
PPPRPGFCLFLP | 0.674 ± 0.05
PPPRPRYLHPPS | 0.719 ± 0.035
PPPRRPPPRLLS | 0.705 ± 0.11
PPPSAPLPPLPL | 0.714 ± 0.019
PPPSHLGSLDPL | 0.661 ± 0.02
PPPSPPLPPHSP | 0.7619 ± 0.0011
PPPSPPRPLLPV | 0.701 ± 0.023
PPPSSELTFLHY | 0.797 ± 0.067
PPPTPLLLSHLL | 0.709 ± 0.068
PPPTPPRPPSPP | 0.656 ± 0.015
PPPTPTPPSQPT | 0.681 ± 0.012
PPPVPPPPAHTP | 0.681 ± 0.091

Sequence | protein stability index
PPPVPPPWPSPF | 0.661 ± 0.047
PPPYRPPPSSPG | 0.661 ± 0.04
PPQLSRHVSTRP | 0.754 ± 0.0084
PPQPRSHPPHLS | 0.594 ± 0.086
PPQSPPPGSPPP | 0.649 ± 0.013
PPRASPFPTPPP | 0.579 ± 0.04
PPRFCPPLAPSV | 0.681 ± 0.0095
PPRFLPFPPLPL | 0.75493 ± 0.00067
PPRLVPPTPPSS | 0.65 ± 0.064
PPRPPAALPRLL | 0.714 ± 0.07
PPRPPLSPPRSA | 0.718 ± 0.014
PPRPRVLPYPPL | 0.746 ± 0.028
PPRQLPFLAPSP | 0.709 ± 0.046
PPRRPSPPSPHP | 0.67196 ± 0.00055
PPRSPPSLPFPP | 0.634 ± 0.0066
PPRTHRPPTPPQ | 0.7212 ± 0.0063
PPSLCPPPSLLF | 0.733 ± 0.013
PPSLLLCPLFTS | 0.602 ± 0.075
